For orientation: Tm means the temperature at the midpoint of the melting transition.

For the data set the following is noted: Bos taurus; pH 8.5; Thermal; CD; Glycine; reversible: YES; whole UniProt chain shown.

B1: Adrenodoxin, mitochondrial wild type, P00257 (protein)
chain: MAARLLRVASAALGDTAGRWRLLARPRAGAGGLRGSRGPGLGGGAVATRTLSVSGRAQSSSEDKITVHFINRDGETLTTKGKIGDSLLDVVVQNNLDIDGFGACEGTLACSTCHLIFEQHIFEKLEAITDEENDMLDLAYGLTDRSRLGCQICLTKAMDNMTVRVPDAVSDARESIDMGMNSSKIE
For the protein B1, the Tm came out at 51.9 °C.

These data come from FireProtDB (doi:10.1021/bi020450z).
